Patent publication US11789012B2, “Cell death biomarker” (UCL Business PLC, priority 2016, dated 2023)

What was measured:
H226 = assay: rTRAIL response, viability assay, H226; format: cell-based, Human; conditions: BAP1 Deletion, Homozygous
Description: (§1) Manual “single dose” combination screening was undertaken using 96 well formats. Cells were plated on day 1 in previously optimized seeding densities in 180 μl if media. On day 2 20 μl of a 10× concentration of […] was added. Cells were then allowed to grow for 72 hrs or 6 days and fixed at the end of the assay. Drug wells were compared to DMSO treated control wells.
(§2) Single agent high throughput 5 point viability screening was undertaken in 384 well formats using robotic liquid handling with fixing with 4% paraformaldehyde and staining for viability with Syto60 nucleic acid dye (Invitrogen) (see below). Single agent dose response curves were derived for each library of 85-95 drugs according to the experiment used, and log IC50 or area under the curve (AUC) metrics were derived for each library compound in each cell line according to a previously derived formula [18].
(§3) Adherent cell lines were seeded 24 hours before drugging. Cells were trypsinised and counted before seeding at the optimal density for the size of well (96 or 384) and duration of assay. 72 hr after drug treatment cells were fixed with 4% paraformaldehyde for 30 minutes. […] Quantification of fluorescent signal was achieved using excitation/emission wavelength of 630/695 […].

H2722 = assay: rTRAIL response, viability assay, H2722; format: cell-based, Human; conditions: BAP1 HomDel, homozygous
Description: as §1, §2, §3

H2731 = assay: rTRAIL response, viability assay, H2731; format: cell-based, Human; conditions: BAP1 Essential Splice, heterozygous
Description: as §1, §2, §3

H2795 = assay: rTRAIL response, viability assay, H2795; format: cell-based, Human; conditions: BAP1 Essential Splice, heterozygous
Description: as §1, §2, §3

H2804 = assay: rTRAIL response, viability assay, H2804; format: cell-based, Human; conditions: BAP1 Essential Splice, heterozygous
Description: as §1, §2, §3

NCI-H2452 = assay: rTRAIL response, viability assay, NCI-H2452; format: cell-based, Human; conditions: BAP1 Substitution - Missense, homozygous
Description: as §1, §2, §3

NCI-H28 = assay: rTRAIL response, viability assay, NCI-H28; format: cell-based, Human; conditions: BAP1 Essential Splice, heterozygous
Description: as §1, §2, §3

NCI-H226 = assay: rTRAIL response, viability assay, NCI-H226; format: cell-based, Human; conditions: BAP1 HomDel, homozygous
Description: as §1, §2, §3

H2369 = assay: rTRAIL response, viability assay, H2369; format: cell-based, Human; conditions: BAP1 Wild-type
Description: as §1, §2, §3

H2803 = assay: rTRAIL response, viability assay, H2803; format: cell-based, Human; conditions: BAP1 Wild-type
Description: as §1, §2, §3

MPP-89 = assay: rTRAIL response, viability assay, MPP-89; format: cell-based, Human; conditions: BAP1 Wild-type
Description: as §1, §2, §3

MSTO-211H = assay: rTRAIL response, viability assay, MSTO-211H; format: cell-based, Human; conditions: BAP1 Wild-type
Description: as §1, §2, §3

[1] = system: control normal mesothelial cell line MET-5A; assay: 6-day viability assay, normal mesothelial control line; format: cell-based; conditions: rTRAIL 40 ng/ml
Description: (§4) FIG. 2A is a volcano plot showing drug-genome interactions in MPM. […] The Y-axis denotes adjusted p-Value, X-axis denotes effect size. Size of circle indicates number of mutant lines in cohort tested. […] Met 5a is a mesothelial normal control line. FIG. 2C is a scatter plot showing AUC following 6 day viability assay in response to 40 ng/ml rTRAIL (normalised to DMSO treated control) in cell lines discretized by BAP1 mutation status. […] Two-tailed t-test, p=0.015.
as §1
Adherent cell lines were seeded 24 hours before drugging. Cells were trypsinised and counted before seeding at the optimal density for the size of well (96 or 384) and duration of assay. 72 hr after drug treatment cells were fixed with 4% paraformaldehyde for 30 minutes. Following two washes of dH2O 100 μl Syto60 nucleic acid stain (Invitrogen) was added at a final concentration of 1 μM and plates […] for 1 hr at room temperature. Quantification of fluorescent signal was achieved using excitation/emission wavelength of 630/695 […].

mesothelioma cell lines = assay: Chemical screen, viability of mesothelioma cell lines by BAP1 mutation status; format: cell-based, Human; conditions: 6 day viability assay, 40 ng/ml rTRAIL
Description: as §4
Manual “single dose” combination screening was undertaken using 96 well formats. Cells were plated on day 1 in previously optimized seeding densities in 180 μl if media. On day 2 20 μl of a 10× concentration of media from a stock of drugs was added. […]
A binary event matrix was compiled for the cell lines in the mesothelioma screen by aggregating copy number and exome data and this was used as input classifiers for genomic correlation. Data from this therapeutic screen was then analysed using a Multivariate Analysis of Variance (MANOVA) to annotate the sensitizing effect of genotype on dose response.
Adherent cell lines were seeded 24 hours before drugging. Cells were trypsinised and counted before seeding at the optimal density for the size of well (96 or 384) and duration of assay. […] Quantification of fluorescent signal was achieved using excitation/emission wavelength of 630/695 […].

H2818 = assay: Cell death response to rTRAIL after BAP1 shRNA knockdown in H2818; format: cell-based, Human; conditions: H2818 BAP1 wild-type line
Description: Adherent mesothelioma cell lines were plated in a 96 well plate at approximately 10000 cells per well. Cells were plated and given 1 day to adhere at which time drug was added. After 48 hrs media, including floating cells, was collected from each well. The remaining adherent cells were washed with PBS and mobilised with 0.05% trypsin in EDTA. All cells were collected into tubes containing the previously removed media and pelleted by centrifugation (300 g, 5 minutes). Cells were then re-suspended in 1× Annexin V binding buffer with 10 μl/1 ml concentration of Annexin V-647 antibody (Invitrogen) and incubated for 15 minutes at room temperature. DAPI ([…]) was then added to each sample before flow cytometry analysis as below. Annexin V−/DAPI− cells were judged to be viable, AnnexinV+/DAPI− cells were considered to be undergoing apoptosis (early apoptotic phase), and Annexin V+/DAPI+ cells were considered late apoptotic or necrotic, and recorded as dead.
Lentivirus encoding shRNA targeting BAP1 was generated as per the lentivirus production protocol above. MPM cells (H2818) were transduced and treated with puromycin […] until a pure population was achieved. Immunoblotting was performed to assess efficacy of the shRNA knockdown.

RT4 = assay: rTRAIL viability, bladder cancer cell line RT4; format: cell-based; conditions: nonsense mutation in BAP1
From the text: (§5) FIG. 8A is a graph showing the effect of rTRAIL on the viability of various cancer cell lines. Bladder (RT4) and Breast (HCC1187) cancer cell lines with nonsense mutations in BAP1 show sensitivity to rTRAIL while renal cell cancer cell lines (769P & RCC10RGB) with missense mutation and wild-type renal (BB65RCC) and bladder cancer (SW1710) cell lines are resistant to TRAIL.

HCC1187 = assay: rTRAIL viability, breast cancer cell line HCC1187; format: cell-based; conditions: nonsense mutation in BAP1
From the text: as §5

769P = assay: rTRAIL viability, renal cell cancer cell line 769P; format: cell-based; conditions: 769P renal; BAP1 missense mutation
From the text: as §5

BB65RCC = assay: rTRAIL viability, renal cell line BB65RCC; format: cell-based; conditions: BAP1 wild-type
From the text: as §5

B1: rTRAIL: recombinant protein that activates the TRAIL pathway by binding to TRAIL-R1 (DR 4) and TRAIL-R2 (DR 5) (protein, UniProt P50591 1-281, looked up)
Tumor necrosis factor ligand …: MAMMEVQGGPSLGQTCVLIVIFTVLLQSLCVAVTYVYFTNELKQMQDKYSKSGIACFLKEDDSYWDPNDEESMNSPCWQVKWQLRQLVRKMILRTSEETISTVQEKQQNISPLVRERGPQRVAAHITGTRGRSNTLSSPNSKNEKALGRKINSWESSRSGHSFLSNLHLRNGELVIHEKGFYYIYSQTYFRFQEEIKENTKNDKQMVQYIYKYTSYPDPILLMKSARNSCWSKDAEYGLYSIYQGGIFELKENDRIFVSVTNEHLIDMDHEASFFGAFLVG
- rTRAIL response (H226): Sensitive
- rTRAIL response (H2722): Resistant
- rTRAIL response (H2731): Sensitive
- rTRAIL response (H2795): Sensitive*
- rTRAIL response (H2804): Sensitive
- rTRAIL response (NCI-H2452): Resistant
- rTRAIL response (NCI-H28): Sensitive
- rTRAIL response (NCI-H226): Sensitive**
- rTRAIL response (H2369): Resistant
- rTRAIL response (H2803): Resistant
- rTRAIL response (MPP-89): Resistant
- rTRAIL response (MSTO-211H): Sensitive**
- effect on cell viability [1]: no significant effect on cell viability
- sensitivity of BAP1 mutant cells compared with wild-type counterparts (mesothelioma cell lines): significantly more sensitive
- TRAIL sensitivity after ablation of BAP1 with lentiviral shRNA vs parental line (H2818): shift towards increased sensitivity
- response to rTRAIL (viability) (RT4): sensitivity
- response to rTRAIL (viability) (HCC1187): sensitivity
- response to TRAIL (viability) (769P): resistant
- response to TRAIL (viability) (BB65RCC): resistant
